How the values were obtained:
[1] = substrate: NC1=NC(=O)C2N=C(CN(C=O)c3ccc(C(=O)N[C@H](CCC(=O)O)C(=O)O)cc3)C=CC2N1; assay: (§1) Substrate specificity towards AICAR formyltransferase
[2] = substrate: NC1=NC(=O)C2N[C@@H](CN(C=O)c3ccc(C(=O)N[C@H](CCC(=O)O)C(=O)O)cc3)CNC2N1; assay: as §1

B1: Bifunctional purine biosynthesis protein ATIC (Homo sapiens), P31939 (protein)
chain: MAPGQLALFSVSDKTGLVEFARNLTALGLNLVASGGTAKALRDAGLAVRDVSELTGFPEMLGGRVKTLHPAVHAGILARNIPEDNADMARLDFNLIRVVACNLYPFVKTVASPGVTVEEAVEQIDIGGVTLLRAAAKNHARVTVVCEPEDYVVVSTEMQSSESKDTSLETRRQLALKAFTHTAQYDEAISDYFRKQYSKGVSQMPLRYGMNPHQTPAQLYTLQPKLPITVLNGAPGFINLCDALNAWQLVKELKEALGIPAAASFKHVSPAGAAVGIPLSEDEAKVCMVYDLYKTLTPISAAYARARGADRMSSFGDFVALSDVCDVPTAKIISREVSDGIIAPGYEEEALTILSKKKNGNYCVLQMDQSYKPDENEVRTLFGLHLSQKRNNGVVDKSLFSNVVTKNKDLPESALRDLIVATIAVKYTQSNSVCYAKNGQVIGIGAGQQSRIHCTRLAGDKANYWWLRHHPQVLSMKFKTGVKRAEISNAIDQYVTGTIGEDEDLIKWKALFEEVPELLTEAEKKEWVEKLTEVSISSDAFFPFRDNVDRAKRSGVAYIAAPSGSAADKVVIEACDELGIILAHTNLRLFHH
In the case of B1, the Km [1] is reported as 102 µM and the Km [2] is reported as 68 µM.
